Assay: soluble fraction after stress (log2 fold change); higher = more stays soluble; pooled small domains, quantitative proteomics
Details: stress: pH 4
How it was run: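 Values are on a log2 scale, where higher means more of the domain stayed soluble after pH 4 stress. They are fold changes in the soluble amount of each domain from pooled custom libraries, measured by high-throughput quantitative proteomics. The fold change is taken to reflect aggregation propensity.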

| Sequence | soluble fraction (log2) |
| --- | --- |
| HMSDQTYVKDPETGEIFRVHKRVWETGEFWRDPVWGNILGGVERGSELERLLREEGWRPLQQSLEGFPEQ | -0.276 |
| HMSDRESYGRYRNVSLTLSEYESLKNEYPLYADKYIERLSEYMETAGKHYNNHYATILSWLSKDIK | -0.8 |
| HMSDSGLPLPRFVSLGDDRVNARAGPGFRFPINWVYLRKNFPVEVIDEFGHWRRIKDIDGIEGWIHLSML | -0.734 |
| HMSDTSELESIIAQIIEDNPKSIEDIGAGNQKAYGFLTGQVMKATKGQANPQVANKIIRELVARKLE | -0.41 |
| HMSDTVDITKLGIAGKTKEAAEALLKENGFSVESKEENSDTIEKGKVISYSPTKPKNGDRITLIVSSGKK | 0.301 |
| HMSEDTYNTLTKGTRVYNGVDYGAKYGYNPLYYFLNYNDLRIAYGADPAKLVEHYALFGIKENRVANRQIT | -0.247 |
| HMSEEELETSGLVKRSAKGNLYDIFRHRVMVPIIDVRGAIIAFGGRVLDDSKPKYINSPETMVY | 0.0468 |
| HMSEEQLKAFLEKVQGDTSLQEKLKAAADANAVVEIAKEAGFSISADDLKNAQSELSEEELE | -0.257 |
| HMSEEVDVPDLVGMQLEEAEKSLEPLGLKLKIAKEIPNSEFEKGKIVDQKTKAGEKVKTGYTIEVTVSSG | -0.0107 |
| HMSEFAYPISLNGKTKFNLALSLALTKEEIEKEVLANADVQKFLNGQTPKKLIVVPGKIVNVV | 0.123 |
| HMSEGEMSQWIIAQAKQQGGGFQPDAARLLGSYVGNNTLRARQEIDKLLTYVGPSRVVTPEDVVLLTA | -0.0309 |
| HMSEHKFIVPEEFNLKRLDQTVAAQFEKISRTKISKIIKSSLLKVNDKVVTDQSIKIKQDDVITFTEIKDQ | 0.237 |
| HMSEKRLHLVVDESDVNTRIDKYIADELDGYSRSFIQKLIKDNNVLVNGRAVKPNYNIGISDNIDIVLPKL | 0.188 |
| HMSELIDSLTEAVRSAPDAVPLRLHLAELLLADGQRDRAFAQLGQVLAKDPQNARALEMLGVGS | -0.373 |
| HMSELSEVIEKTFEELPEELKLIVKLREIDDLSYDEISNKIGIPIGTVRSRLHRAREILINIIKN | -1.01 |
| HMSELSGSQLKAIREEKHIPLEQVASATRIRLSLLEALEMDEYAELGSRTQARGFLKLYADFLGVPFEA | 0.00575 |
| HMSEMDNMEWVREQYFQNMIYEIGEWVRDKKTGIVGEVVKRGTNYVTVVQEDFSLHKIWLEDLETTEK | -0.966 |
| HMSEMLPFDEARRQFERDYLVQLLKLTSGNVSQAARLARRNRTDFYALLGRHQLEPASFKPE | -0.641 |
| HMSEMVIPEDFLAALETNPQAKAFYATLNRQNQYAVYHRLQTAKRPETRAKRIADFVAQLAAGKRF | -0.00136 |
| HMSEPHPPFQVVAQFPYKSEYEDDLNFEKDQIITVTSIEDDEWYYGDFKNKGGELVEGIFPKSFVTVK | -0.867 |
| HMSEPQYKVLFSNLDDRDGGAIVTALGAMNVPYKYNDTGTALLVPADRVYDARLQLASQGLPRG | 0.172 |
| HMSEPTVVAINETLTSERLDRYLTTQLPHISRGGIQRLLRKGNILVDGKPAKPTQHPVAGQTVEITWPIPK | -0.02 |
| HMSEQMQVGELVFQLHRKAIKNLHINVLPPDGFVRVSAPQAMTETAIRTAVISRLPWIRRQQQAFAAQ | ≥ 0.43 |

| Sequence | soluble fraction (log2) |
| --- | --- |
| HMSERVVEIDPSQLRPGLFIRLPSGWMNHPFLFNQFRINSAEQVEIIQKLGLKTVQYLPERSSTQALPRA | -0.644 |
| HMSESEDFQNRWRPWRSLLDDETPVVREALVDQLKLFPEEGRLFLQQMSEEDDPISARHAFELIKSLGW | -1.11 |
| HMSETAVTYNEDFEADGSLRPNEQAVLDAFTGVLKLTVSELEKKTGLRNVVPVVASLMAKGAVEVSEELK | -0.763 |
| HMSETEWGEIYRKVMAAGLIPARSVRERLLALPSIEPLLQAAEAAGSKGMLDETLLDSLLSKT | -0.539 |
| HMSETLESYTTRLKQLEEIADSFQGVDKTFAIQAGREIRVMVVPEQISDDDMILLARDISNQIEENLDY | -0.912 |
| HMSEVIYVAEDNVGQRIDVFLVNKLVDASRANIQKNIVDGVILVNNKNVKANYKLRLGDVVEIRTQ | -0.317 |
| HMSEVPAAVLVTGGSINLREAPSTDATIIDVAQVGEKMTVLAEKNSWYQVSRGGRNVWVASWVVDPLT | -0.566 |
| HMSEVTYQETLRLLRRAIDVLPQQSRQIILLGLSGKNNNEVAEMLGISVNTVKTLKKGAYKSLRNSL | -0.281 |
| HMSEYITEGWLREKFGLGWGTEVHLPLDSRLTPAAHQLLEERKIVIKYIDAEGRVFNPDKSGEEAPVQ | -0.343 |
| HMSEYVIVTGEKVNLRVGPGMDYEIAGQVVKGDKLELLASEGDWSKVKTGSGSIYYISSSLVQKA | -0.334 |
| HMSFDGFSDRLKSVLNSGKYTQKEAAEKINISEYSFTKYLNGRIPQTEILYKIARLYNKSMEWLLTGKDPI | -0.158 |
| HMSFGWELYKGKEGIADTDLHPSGWIRIADKRVFAVSEGEFIEKGLEIIVLSVDGNRIVVRELK | -0.445 |
| HMSFGWETLEGKEGVTDTDLHPSGWVKVGDEKIFVVSQGEFLGKGTDIVVVSVDGNRVVVKELI | -1.11 |
| HMSFKQARFMMDAANGKALAWLYSHAEVLDRKDQGENIEIHVMISPADLSRFVNAFGYQPVQS | -0.0667 |
| HMSFMFEISVIRSQYNMQDPESKTGFYNAIAKKLLEFPEKLERDNYTEAVAREYMIPETDLKNLVNSMGG | -1.66 |
| HMSFNGTILSNYQKTYPNLAKFTYDQANDALVYEGNFIKLNGYGLSRIDPVFFNMNPDEIFIFIKNG | -2.69 |
| HMSFNTNENKNLLWELMNKHNLFKDIDNQHYQEVQKLFEEEIVFISNNNKSLDLVEQNKKFLSSIITKLNK | -1.2 |
| HMSFPQVELNTNKGRIVLELNSEKAPKTVANFLEYVRDGFYDGVIFHRVIDGFMIQGGGFDENFKEKA | -0.275 |
| HMSFSPYLVRVSITDLNIRKGPGTNYAKTGKFTGKGVFTIVEMQTGKGSDTGWGRLKSGAGWISLDYTEKI | 0.0318 |
| HMSFSQNIGKRIREERLRLNLTQEKLAEDVNLSMAYIGQVERGDRSLTLDNLIIVAKRLGVTIDYLLS | -0.171 |
| HMSFTSQSVLIEIVRGTTQLTPLAAAVGANKREVVLAVHRLKQRGLVVSAGLGQYAATEAGRAFLTAGREV | ≥ 0.43 |
| HMSFYSVVISQDGSMLVAENRNEIYSNEELLELASEVNEKTGTIGTIGSLMYYKADKGGYTLITFLDNS | -2.05 |
| HMSGALDTVVGIRMLKLLSTPIEKSKAFQVGIINKDGKKLRDPTSGERQHYTFLNRFVFKVQYALMRS | -0.072 |

| Sequence | soluble fraction (log2) |
| --- | --- |
| HMSGDYRPLYPNLPESEKSEAFNLLAGSALPARLDDRTGDIMVPADRYYEARMILANAGFAD | 0.053 |
| HMSGEMGIIVAKRLPIRSEPDELATRAFVLKAGTRVKIVKHLNGWLEIVHDGKAGYVQDLEVYVRVIG | -0.445 |
| HMSGEPVKSTLPGNVFKILVAVGDSVKKGQRMFVLEAMKMEIDVNAPKDGLVTSIEVQQGQTVANGQILAK | 0.181 |
| HMSGIESIVIPLKGLDFDMISSTLTPQLKQAIKYDKQSDSIILVGTNAKVNIIAKQVNAMVEVYKLKT | -0.0326 |
| HMSGIGTTIKMLRENKNISQEELGNVLGVSDKTISSWEINRTEPKMGIVQLLADYFGVSTDYLIKG | -0.201 |
| HMSGILINGELYKPGEQMSLKQRLSIQARIQMQGEDTVKPEMLKDFYNSGGPLSKEESSEYMKSQN | -0.321 |
| HMSGIQNNFITRLKKVLAPTIGIAEEISDLLNISIDSAYRRIRGETDFTFEEIYIITRKHKISIDEIYG | -2.14 |
| HMSGIVPAAPPLRPDLDIKWHTGDKVRHAKWGEGTIVSVKGEGEETELKIAFPGQGIRPFMQKYAPITR | 0.214 |
| HMSGLEDIKKKILEDAGIKKGSVKFVKVDKDYDDGIWKYEIDFVYDGKEYEYEIEVETGKILSRKTEKSD | 0.165 |
| HMSGLVPAIGTKGEEGYIRESDIPGSNVKNPEEALAYMEWLKTQPSELLIPLYDEQGNVIGQFAVS | -0.681 |
| HMSGMEKLAIQEIEKEIKSFVKGDILIELTGKNRATAYVSEKNVGALIGKKGERINSIEKRLGVGIDVRPY | -0.275 |
| HMSGMNSDHRVNGNIHTFLIQHDLGTKWSVFTEQLLKQVFRSFLPDKELNFQTTDSTVILKVSLGSDFNEH | -0.19 |
| HMSGPAEDLLAIEGMDKELAYELAARGIRTRDELADQSLDELEAVPGLDPVRAGQLIMAARAHLFENAGQ | -0.355 |
| HMSGRSVSYSEFMSRVEAGQVSSVTLDGERVEVTGSDGSRYVTIAPSDATLTDKLVAKGVEVRADP | 0.196 |
| HMSGSKEQQIVILNNILERQLQAFGLQGNREFPMVTLKNIYNSLSKIIENAGLKNVENYFVNPEQGKQM | -0.394 |
| HMSGTFIGGELVKPGEPLTPMQRAAITMGLQMGNTYSPEIMEKYNNAGGSPSKEEFENYQKNKS | 0.22 |
| HMSHGFFELKTTQKEALIKLLDSHPNFTHTKTEADLTTAFLKLPMDAEQFNKLLFTNGIVLSHLVKRK | -0.276 |
| HMSHGYVEMQAKDDQVLLAALKNHPWFEKVSIDEETGLTKAILTQPIEAEELNSMLFEKGIVLSHLVKRK | -1.2 |
| HMSHISLGQRYKIEGYLQINLKRTQIAKEIGLPKKTVNQEIKRNSNPQTGIYKAEEAHQLYLDRMQKKRK | 0.426 |
| HMSHKYKLTVPETGEGTRVDKFLSSALTELSRTRLKSLIEEGQVTLGGVKLTNPSHRVKSGDELNIEIPVP | 0.0568 |
| HMSHPNAPLTPEGRRRLAVLIVEDGWTIRRAAERFQVSPATASKWARRYRAGESLTDRSSRP | 0.0223 |
| HMSHSDMEEWTDAVRSRRKKLGLTQVQIARRLGVTSHHFSQIESGRTIPSASLQIEIDRLLKNWND | 0.0462 |

From the domain aggregation screens of Martell et al. (2025)
